Laboratory results as given in publication PMC11078181, “Genomic context– and H2AK119 ubiquitination–dependent inheritance of human Polycomb silencing” (Science Advances, 2024).

Biological target: T1, Strep-RBBP7 (UniProt Q16576 1-425)
T1 construct: called full-length in the results; also called full-length RBB7; source: HEK293FT, transiently transfected, purified (Strep-Tactin Sepharose, eluted with desthiobiotin)
Experiment: pull-down; GST or GST-BCORL(S1474-G1644) (0.1 μM) on Glutathione Sepharose 4B with Strep-RBBP7 (0.1 μM), lysis buffer with 0.1% Triton X-100, overnight at 4°C; stain-free SDS-PAGE
Conditions: both partners purified

T1 sequence (Q16576 whole entry): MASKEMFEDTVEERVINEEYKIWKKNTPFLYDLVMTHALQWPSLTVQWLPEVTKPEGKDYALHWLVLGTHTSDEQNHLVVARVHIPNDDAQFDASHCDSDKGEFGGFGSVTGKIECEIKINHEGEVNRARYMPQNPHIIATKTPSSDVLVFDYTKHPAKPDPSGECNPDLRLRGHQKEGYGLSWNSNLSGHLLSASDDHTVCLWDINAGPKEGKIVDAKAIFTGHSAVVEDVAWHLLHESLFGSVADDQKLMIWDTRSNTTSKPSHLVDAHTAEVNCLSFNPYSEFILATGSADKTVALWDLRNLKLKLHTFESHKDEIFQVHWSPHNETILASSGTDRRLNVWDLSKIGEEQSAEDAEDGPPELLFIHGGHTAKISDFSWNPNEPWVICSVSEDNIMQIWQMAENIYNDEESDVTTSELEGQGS

binding result: binds
B1: GST-BCORL(S1474-G1644) (domain or fragment, UniProt Q5H9F3 1474-1644, looked up)
chain: SESPTARQIPPEARRLIVNKNAGETLLQRAARLGYKDVVLYCLQKDSEDVNHRDNAGYTALHEACSRGWTDILNILLEHGANVNCSAQDGTRPVHDAVVNDNLETIWLLLSYGADPTLATYSGQTAMKLASSDTMKRFLSDHLSDLQGRAEGDPGVSWDFYSSSVLEEKDG
notes: also called GST-BCORL fragment; source: E. coli BL21, purified (Glutathione Sepharose 4B, eluted with glutathione, dialysed); not shown: GST, N-terminal, kept
